Experimental data published in the supplement of paper PMC9112550, “Optimization of the antimicrobial peptide Bac7 by deep mutational scanning” (BMC Biology, 2022).

tested on: Escherichia coli TOP10; test: shrunken log2 fold change of peptide-encoding DNA abundance (4.5 h post-induction vs induction); higher = less antimicrobial activity (less host growth inhibition); details: time post-induction: 4.5 h; library: site-saturation at positions 5, 18, 19, 20
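Further: peptides expressed intracellularly from a pBAD plasmid library in pooled LB shake-flask culture, induced with 0.3% L-arabinose, DNA abundance read by NGS, three biological replicates, DESeq2 with apeglm shrinkage.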

Sequence	shrunken log2 fold change
RRIRFRPPRLPRPRPRPVNNPRP	-0.316
RRIRARPPRLPRPRPRPQYCPRP	-0.0903
RRIRWRPPRLPRPRPRPYFVPRP	-0.309
RRIRVRPPRLPRPRPRPLFKPRP	-0.262
RRIRGRPPRLPRPRPRPMATPRP	1.37
RRIRPRPPRLPRPRPRPHKFPRP	-0.547
RRIRGRPPRLPRPRPRPTMWPRP	0.757
RRIRERPPRLPRPRPRPSGCPRP	0.0787
RRIRSRPPRLPRPRPRPKIFPRP	-0.0746
RRIRTRPPRLPRPRPRPNCYPRP	-0.836
RRIRCRPPRLPRPRPRPCFYPRP	-0.675
RRIRTRPPRLPRPRPRPYSSPRP	0.00157
RRIRERPPRLPRPRPRPSWPPRP	-0.079
RRIRMRPPRLPRPRPRPSRVPRP	0.885
RRIRHRPPRLPRPRPRPIETPRP	-0.00822
RRIRERPPRLPRPRPRPPQKPRP	-0.0624
RRIRWRPPRLPRPRPRPWIWPRP	0.0705
RRIRIRPPRLPRPRPRPCMLPRP	-0.61
RRIRGRPPRLPRPRPRPTTQPRP	0.429
RRIRMRPPRLPRPRPRPEKQPRP	2.16
RRIRHRPPRLPRPRPRPPIHPRP	-0.639
RRIRARPPRLPRPRPRPNPLPRP	0.32
RRIRSRPPRLPRPRPRPQNLPRP	-0.394
RRIRLRPPRLPRPRPRPNHMPRP	-0.326
RRIRKRPPRLPRPRPRPLFTPRP	0.331

Sequence	shrunken log2 fold change
RRIRVRPPRLPRPRPRPYNAPRP	-0.521
RRIRWRPPRLPRPRPRPGTIPRP	-0.283
RRIRERPPRLPRPRPRPGPKPRP	-0.00801
RRIRMRPPRLPRPRPRPMHTPRP	3.3
RRIRGRPPRLPRPRPRPEDLPRP	0.582
RRIRPRPPRLPRPRPRPKRTPRP	0.0584
RRIRHRPPRLPRPRPRPIPQPRP	-0.126
RRIRDRPPRLPRPRPRPYPFPRP	-0.671
RRIRMRPPRLPRPRPRPRQNPRP	0.62
RRIRGRPPRLPRPRPRPSCPPRP	-0.12
RRIRTRPPRLPRPRPRPLHAPRP	0.143
RRIRNRPPRLPRPRPRPGIFPRP	-0.0122
RRIRPRPPRLPRPRPRPDVLPRP	-0.709
RRIRCRPPRLPRPRPRPPCLPRP	-0.199
RRIRARPPRLPRPRPRPSEVPRP	0.258
RRIRSRPPRLPRPRPRPLTIPRP	-0.201
RRIRYRPPRLPRPRPRPKQTPRP	0.283
RRIRQRPPRLPRPRPRPWFMPRP	-1.08
RRIRHRPPRLPRPRPRPSLYPRP	0.07
RRIRLRPPRLPRPRPRPDRTPRP	0.0027
RRIRKRPPRLPRPRPRPYCMPRP	-0.461
RRIRDRPPRLPRPRPRPYHTPRP	-0.403
RRIRERPPRLPRPRPRPQFFPRP	-0.0736
RRIRLRPPRLPRPRPRPRAWPRP	0.41
RRIRVRPPRLPRPRPRPTPIPRP	0.186

Sequence	shrunken log2 fold change
RRIRQRPPRLPRPRPRPVMKPRP	-0.212
RRIRTRPPRLPRPRPRPLCTPRP	-0.106
RRIRCRPPRLPRPRPRPEQKPRP	-0.0751
RRIRIRPPRLPRPRPRPYKHPRP	-1.57
RRIRKRPPRLPRPRPRPALAPRP	0.885
RRIRARPPRLPRPRPRPKSEPRP	1.22
RRIRMRPPRLPRPRPRPWMYPRP	-0.0417
RRIRQRPPRLPRPRPRPQGRPRP	-0.0215
RRIRARPPRLPRPRPRPFTDPRP	0.128
RRIRYRPPRLPRPRPRPHKCPRP	-0.259
RRIRDRPPRLPRPRPRPLMNPRP	0.0268
RRIRNRPPRLPRPRPRPPPAPRP	1.09
RRIRIRPPRLPRPRPRPFIDPRP	-0.205
RRIRARPPRLPRPRPRPKDYPRP	-0.248
RRIRHRPPRLPRPRPRPDAYPRP	0.027
RRIRLRPPRLPRPRPRPALYPRP	0.193
RRIRCRPPRLPRPRPRPVYFPRP	-0.711
RRIRHRPPRLPRPRPRPMGTPRP	-0.0597
RRIRRRPPRLPRPRPRPLESPRP	0.0173
RRIRCRPPRLPRPRPRPDDTPRP	-0.36
RRIRTRPPRLPRPRPRPYNLPRP	-0.336
RRIRVRPPRLPRPRPRPWEQPRP	-0.355
RRIRARPPRLPRPRPRPNVKPRP	-0.167
RRIRIRPPRLPRPRPRPDPHPRP	-0.314
RRIRRRPPRLPRPRPRPLWKPRP	0.115
